Source: the supplement of paper PMC10567573

B1: CROP (parent)
chain: VFGRGDNISDVSKFLEDDKWMEE
B2: C8orf76 (parent)
chain: KLAEAYLNLGPALSAALASSQKQH

Variants of: B1
Assay: protein stability index of a GFP-peptide fusion (GPS, HEK-293T) (PSI 1-6); higher = more stable
Conditions: c terminus: native
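Further: lentivirally expressed fusions sorted by FACS into six bins by GFP to DsRed ratio, PSI derived from sequencing read proportions per bin multiplied by bin number.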

Row | Variant | protein stability index
1 | VFGRGDNISDVSKFLEDDKTMEE [W20T] | 4.17
2 | VFGRGDNISDVSKFLEDDKVMEE [W20V] | 3.81
3 | VFGRGDNISDVSKFLEDDKYMEE [W20Y] | 3.39
4 | VFGRGDNISDVSKFLEDDKWAEE [M21A] | 1.86
5 | VFGRGDNISDVSKFLEDDKWCEE [M21C] | 3.53
6 | VFGRGDNISDVSKFLEDDKWDEE [M21D] | 4.49
7 | VFGRGDNISDVSKFLEDDKWEEE [M21E] | 4
8 | VFGRGDNISDVSKFLEDDKWFEE [M21F] | 2.28
9 | VFGRGDNISDVSKFLEDDKWGEE [M21G] | 4.04
10 | VFGRGDNISDVSKFLEDDKWHEE [M21H] | 2.25
11 | VFGRGDNISDVSKFLEDDKWIEE [M21I] | 1.27
12 | VFGRGDNISDVSKFLEDDKWNEE [M21N] | 1.43
13 | VFGRGDNISDVSKFLEDDKWPEE [M21P] | 1.38
14 | VFGRGDNISDVSKFLEDDKWQEE [M21Q] | 2.94
15 | VFGRGDNISDVSKFLEDDKWSEE [M21S] | 2.52
16 | VFGRGDNISDVSKFLEDDKWTEE [M21T] | 2.51
17 | VFGRGDNISDVSKFLEDDKWVEE [M21V] | 1.87
18 | VFGRGDNISDVSKFLEDDKWWEE [M21W] | 1.97
19 | VFGRGDNISDVSKFLEDDKWYEE [M21Y] | 2.28
20 | VFGRGDNISDVSKFLEDDKWMAE [E22A] | 4.23
21 | VFGRGDNISDVSKFLEDDKWMCE [E22C] | 4.69
22 | VFGRGDNISDVSKFLEDDKWMDE [E22D] | 4.23
23 | VFGRGDNISDVSKFLEDDKWMFE [E22F] | 3.47
24 | VFGRGDNISDVSKFLEDDKWMHE [E22H] | 4.54
25 | VFGRGDNISDVSKFLEDDKWMIE [E22I] | 3.81
26 | VFGRGDNISDVSKFLEDDKWMKE [E22K] | 4.73
27 | VFGRGDNISDVSKFLEDDKWMLE [E22L] | 4.07

Row | Variant | protein stability index
28 | VFGRGDNISDVSKFLEDDKWMME [E22M] | 4.28
29 | VFGRGDNISDVSKFLEDDKWMNE [E22N] | 4.31
30 | VFGRGDNISDVSKFLEDDKWMPE [E22P] | 4.33
31 | VFGRGDNISDVSKFLEDDKWMQE [E22Q] | 3.96
32 | VFGRGDNISDVSKFLEDDKWMRE [E22R] | 3.32
33 | VFGRGDNISDVSKFLEDDKWMSE [E22S] | 4.51
34 | VFGRGDNISDVSKFLEDDKWMTE [E22T] | 4.94
35 | VFGRGDNISDVSKFLEDDKWMVE [E22V] | 4.25
36 | VFGRGDNISDVSKFLEDDKWMWE [E22W] | 3.33
37 | VFGRGDNISDVSKFLEDDKWMYE [E22Y] | 3.73
38 | VFGRGDNISDVSKFLEDDKWMEA [E23A] | 4.36
39 | VFGRGDNISDVSKFLEDDKWMEC [E23C] | 4.1
40 | VFGRGDNISDVSKFLEDDKWMED [E23D] | 5
41 | VFGRGDNISDVSKFLEDDKWMEF [E23F] | 3.61
42 | VFGRGDNISDVSKFLEDDKWMEH [E23H] | 4.53
43 | VFGRGDNISDVSKFLEDDKWMEI [E23I] | 4.38
44 | VFGRGDNISDVSKFLEDDKWMEK [E23K] | 4.76
45 | VFGRGDNISDVSKFLEDDKWMEL [E23L] | 3.54
46 | VFGRGDNISDVSKFLEDDKWMEM [E23M] | 4.68
47 | VFGRGDNISDVSKFLEDDKWMEN [E23N] | 4.41
48 | VFGRGDNISDVSKFLEDDKWMEP [E23P] | 3.67
49 | VFGRGDNISDVSKFLEDDKWMEQ [E23Q] | 4.37
50 | VFGRGDNISDVSKFLEDDKWMER [E23R] | 4.6
51 | VFGRGDNISDVSKFLEDDKWMES [E23S] | 4.6
52 | VFGRGDNISDVSKFLEDDKWMET [E23T] | 4.08
53 | VFGRGDNISDVSKFLEDDKWMEV [E23V] | 4.08
54 | VFGRGDNISDVSKFLEDDKWMEY [E23Y] | 3.76

Variants of: B2
Assay: as above
Conditions: c terminus: a fixed tail appended

Row | Variant | protein stability index
55 | ALAEAYLNLGPALSAALASSQKQH [K1A] | 2.64
56 | CLAEAYLNLGPALSAALASSQKQH [K1C] | 4.61
57 | DLAEAYLNLGPALSAALASSQKQH [K1D] | 2.06
58 | ELAEAYLNLGPALSAALASSQKQH [K1E] | 2.64
59 | HLAEAYLNLGPALSAALASSQKQH [K1H] | 1.97
60 | ILAEAYLNLGPALSAALASSQKQH [K1I] | 2.14
61 | LLAEAYLNLGPALSAALASSQKQH [K1L] | 5.14
62 | NLAEAYLNLGPALSAALASSQKQH [K1N] | 3.67
63 | PLAEAYLNLGPALSAALASSQKQH [K1P] | 1.19
64 | QLAEAYLNLGPALSAALASSQKQH [K1Q] | 2.44
65 | SLAEAYLNLGPALSAALASSQKQH [K1S] | 2.08
66 | TLAEAYLNLGPALSAALASSQKQH [K1T] | 2.78
67 | VLAEAYLNLGPALSAALASSQKQH [K1V] | 2.25
68 | WLAEAYLNLGPALSAALASSQKQH [K1W] | 3.61
69 | YLAEAYLNLGPALSAALASSQKQH [K1Y] | 2.63
70 | KAAEAYLNLGPALSAALASSQKQH [L2A] | 2.15
71 | KCAEAYLNLGPALSAALASSQKQH [L2C] | 2.03
72 | KDAEAYLNLGPALSAALASSQKQH [L2D] | 3.38
73 | KEAEAYLNLGPALSAALASSQKQH [L2E] | 3.62
74 | KFAEAYLNLGPALSAALASSQKQH [L2F] | 1.11
75 | KGAEAYLNLGPALSAALASSQKQH [L2G] | 2.36

Row | Variant | protein stability index
76 | KHAEAYLNLGPALSAALASSQKQH [L2H] | 2.66
77 | KIAEAYLNLGPALSAALASSQKQH [L2I] | 2.6
78 | KKAEAYLNLGPALSAALASSQKQH [L2K] | 3.38
79 | KMAEAYLNLGPALSAALASSQKQH [L2M] | 1.68
80 | KNAEAYLNLGPALSAALASSQKQH [L2N] | 2.61
81 | KPAEAYLNLGPALSAALASSQKQH [L2P] | 3.15
82 | KQAEAYLNLGPALSAALASSQKQH [L2Q] | 2.57
83 | KRAEAYLNLGPALSAALASSQKQH [L2R] | 2.38
84 | KSAEAYLNLGPALSAALASSQKQH [L2S] | 3.07
85 | KTAEAYLNLGPALSAALASSQKQH [L2T] | 2.8
86 | KVAEAYLNLGPALSAALASSQKQH [L2V] | 1.33
87 | KWAEAYLNLGPALSAALASSQKQH [L2W] | 2.89
88 | KYAEAYLNLGPALSAALASSQKQH [L2Y] | 1.97
89 | KLCEAYLNLGPALSAALASSQKQH [A3C] | 3.15
90 | KLDEAYLNLGPALSAALASSQKQH [A3D] | 3.08
91 | KLEEAYLNLGPALSAALASSQKQH [A3E] | 1.85
92 | KLFEAYLNLGPALSAALASSQKQH [A3F] | 3.79
93 | KLGEAYLNLGPALSAALASSQKQH [A3G] | 2.22
94 | KLHEAYLNLGPALSAALASSQKQH [A3H] | 2.29
95 | KLIEAYLNLGPALSAALASSQKQH [A3I] | 2.07
